Legend:
[1] = target: T1, human transferrin receptor expressed by normal human cells (RBC, PMN, lymphocytes, monocytes, platelets, … (human, UniProt P02786 1-760)); assay: FACS, PMN, donor D014, 1x
T1 construct: The assay is whole-cell FACS on normal donor cells; also called TfR on normal cells
Procedure: (§1) The hyper-immuned serum (Hyp-serum) or the corresponding cell marker antibodies for certain cell types were included as positive controls.
(§2) 1×10⁵ cells were seeded in each well of a v-bottomed 96-well plate and incubated with 50 μl of hybridoma culture supernatant at 1× and 10× dilution, or isotype control antibody mouse IgM, κ (BD™, Cat. No. 557275) at concentration of 1 μg/ml. A 300× dilution of human cell hyper-immune serum was used as binding positive control for all cell types. PE-conjugated anti-human CD41a (Southern Biotech™, Cat. No. 9391-09) was used as a positive control for staining human platelets. Anti-sialyl Lewis x antibody (Millipore™, Cat. No. MAB2096) was used as a positive control for staining human PMN. Anti-human CD31 (Hycult™, Cat. No. HM2039) was used as a positive control for staining HUVEC. After 30 minutes incubation at 4° C., cells were washed twice with 200 μl FACS buffer (1×PBS containing 1% FBS), stained with 50 μl of 1 μg/ml goat F(ab′)2-anti-mouse IgG(H+L)-PE (Southern Biotech™, Cat. No. 1032-09) or 1 μg/ml goat F(ab′)2-anti-mouse IgM(H+L)-PE (Southern Biotech™, Cat. No. 1022-09) in FACS buffer. After 30 minutes of incubation at 4° C., cells were washed twice with FACS buffer and analyzed by flow cytometry (BD LSR, BD Life Sciences).

[2] = target: T1, human transferrin receptor expressed by …; assay: FACS, PMN, donor D102, 1x
Procedure: (§3) Preparation of PBMC and PMN: The whole blood was diluted with an equal volume of PBS and mixed with 1/10 volume of 15% Dextran solution. […] After centrifugation at 2200 rpm for 15 min (rotor: SORVALL, PN11788 and centrifuge: SORVALL, RT7), PBMC concentrated in the interface, were collected and washed with large volumes of FACS buffer (2% FBS in PBS) for future use. The PMN-rich pellet was collected, from which residual RBC was removed by hypotonic lysis in 0.2% NaCl.
as §2

[3] = target: T1, human transferrin receptor expressed by …; assay: FACS, monocytes, donor D014, 1x
Procedure: as §1, §2

[4] = target: T1, human transferrin receptor expressed by …; assay: FACS, platelets, donor D102, 1/10x
Procedure: as §1, §2

[5] = target: human transferrin receptor expressed by nonhematopoietic cancer cells (human) (UniProt P02786); assay: cell-based or functional assay
[6] = target: T1, human transferrin receptor expressed by …; assay: FACS, platelets, donor D014, 1x
Procedure: as §1, §2

[7] = target: T1, human transferrin receptor expressed by …; assay: FACS, RBC, donor D016, 1/10x
Procedure: as §1, §2

[8] = target: T1, human transferrin receptor expressed by …; assay: FACS, RBC, donor D014, 1/10x
Procedure: as §1, §2

[9] = target: T1, human transferrin receptor expressed by …; assay: FACS, RBC, donor D102, 1/10x
Procedure: as §1, §2

[10] = target: T1, human transferrin receptor expressed by …; assay: FACS, lymphocytes, donor D016, 1/10x
Procedure: as §1, §2

[11] = target: T1, human transferrin receptor expressed by …; assay: FACS, monocytes, donor D102, 1/10x
Procedure: as §1, §2

[12] = target: T1, human transferrin receptor expressed by …; assay: FACS, RBC, donor D102, 1x
Procedure: as §1, §2

[13] = target: T1, human transferrin receptor expressed by …; assay: FACS, monocytes, donor D102, 1x
Procedure: as §3, §2

[14] = target: T1, human transferrin receptor expressed by …; assay: FACS, PMN, donor D005, 1/10x
Procedure: as §3, §2

[15] = target: T2, human transferrin receptor expressed by Jurkat cells (human, UniProt P02786 1-760); assay: FACS, Jurkat cells, 1/10X
T2 construct: Endogenous receptor on Jurkat cells; MEM189 was the positive control; also called TfR on T leukemia cell line Jurkat

[16] = target: T1, human transferrin receptor expressed by …; assay: FACS, platelets, donor D016, 1/10x
Procedure: as §1, §2

[17] = target: T1, human transferrin receptor expressed by …; assay: FACS, PMN, donor D014, 1/10x
Procedure: as §3, §2

[18] = target: human transferrin receptor expressed by nonhematopoietic cancer cells (human) (UniProt P02786); assay: FACS, MDA-MB-453 cells, 1/5X

Sequence of human transferrin receptor expressed by nonhematopoietic cancer cells (human) (P02786 whole entry G142S): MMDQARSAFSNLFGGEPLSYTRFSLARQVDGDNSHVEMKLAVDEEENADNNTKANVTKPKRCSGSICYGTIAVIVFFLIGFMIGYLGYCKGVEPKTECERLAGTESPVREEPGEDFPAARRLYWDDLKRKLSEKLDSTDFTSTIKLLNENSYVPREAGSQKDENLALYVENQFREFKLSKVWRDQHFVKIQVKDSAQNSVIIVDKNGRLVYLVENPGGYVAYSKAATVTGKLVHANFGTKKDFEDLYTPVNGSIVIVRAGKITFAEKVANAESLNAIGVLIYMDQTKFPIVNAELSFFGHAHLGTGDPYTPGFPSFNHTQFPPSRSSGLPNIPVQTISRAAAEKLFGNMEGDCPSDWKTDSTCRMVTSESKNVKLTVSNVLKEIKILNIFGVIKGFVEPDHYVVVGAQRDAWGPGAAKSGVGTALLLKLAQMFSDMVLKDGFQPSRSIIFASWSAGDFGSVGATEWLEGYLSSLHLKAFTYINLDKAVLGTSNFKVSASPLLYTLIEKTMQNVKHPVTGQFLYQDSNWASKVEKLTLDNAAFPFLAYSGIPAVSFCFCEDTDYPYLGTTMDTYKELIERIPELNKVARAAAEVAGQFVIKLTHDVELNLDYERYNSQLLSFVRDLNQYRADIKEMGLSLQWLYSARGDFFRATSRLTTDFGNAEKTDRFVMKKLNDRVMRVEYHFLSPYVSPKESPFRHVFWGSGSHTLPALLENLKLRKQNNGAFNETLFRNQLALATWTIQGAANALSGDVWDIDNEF
T1 sequence (P02786 whole entry G142S): as above
T2 sequence (P02786 whole entry G142S): as above

Row | Binder | % positive cell binding [1] | % positive cell binding [2] | % positive cell binding [3] | % positive cell binding [4] | percentage of Annexin V positive and/or PI positive cells; COLO205; 1/2X (IgM 19.1) [5] | percentage of Annexin V positive and/or PI positive cells; COLO205; 1/6X (IgM 19.1) [5] | percentage of Annexin V positive and/or PI positive cells; COLO205; 1/18X (IgM 19.1) [5] | % positive cell binding [6] | % positive cell binding [7] | % positive cell binding [8] | % positive cell binding [9] | % positive cell binding [10] | % positive cell binding [11] | % positive cell binding [12] | % positive cell binding [13] | % positive cell binding [14] | % of gated cells [15] | % positive cell binding [16] | % positive cell binding [17] | MFI [18] | further results
1 | antibody 122-72 (antibody, V domains shown, Mouse IgM, kappa from a hybridoma; tested as hybridoma culture supernatant; Antibody 60-43 is said to have the same CDRs) VH: EVQLVESGGGLVQPKGSLKLSCAASGFTFNTYAMNWVRQAPGKGLEWVARIRSKSNNYATYYADSVKDRFTISRDDSQSMLYLQMNNLKTEDTAMYYCVAYGSRNYWGQGTTLTVSS VL: DIVMTQSPSSLTVTAGEKVTMSCKSSQSLLNSGNQKNYLTWYQQKPGQPPKLLIYWASTRESGVPDRFTGSGSGTDFTLTISSVQAEDLAVYYCQNDYSYPYTFGGGTKLEIKR | 1% | 1% | < 1% | < 1% | 80.3% | 25.2% | 18.6% | < 1% | 1% | 1% | < 1% | 1% | 4% | < 1% | 1% | < 1% | < 1% | < 1% | < 1% | 16 MFI | percentage of Annexin V positive and/or PI positive cells; DLD1; 1/2X (IgM 24.3) [5]: 42.2%; percentage of Annexin V positive and/or PI positive cells; DLD1; 1/6X (IgM 24.3) [5]: 38.6%; percentage of Annexin V positive and/or PI positive cells; DLD1; 1/18X (IgM 24.3) [5]: 37.1%; percentage of Annexin V positive and/or PI positive cells; H358; 1/2X (IgM 31.8) [5]: 70.8%; percentage of Annexin V positive and/or PI positive cells; H358; 1/6X (IgM 31.8) [5]: 70.1%; percentage of Annexin V positive and/or PI positive cells; H358; 1/18X (IgM 31.8) [5]: 63.9%; percentage of Annexin V positive and/or PI positive cells; Pan 02.03B; 1/2X (IgM 16.9) [5]: 31.5%; percentage of Annexin V positive and/or PI positive cells; Pan 02.03B; 1/6X (IgM 16.9) [5]: 20.5%; percentage of Annexin V positive and/or PI positive cells; Pan 02.03B; 1/18X (IgM 16.9) [5]: 20.5%; percentage of Annexin V positive and/or PI positive cells; SNU-16; 1/2X (IgM 30.0) [5]: 46.6%; percentage of Annexin V positive and/or PI positive cells; SNU-16; 1/6X (IgM 30.0) [5]: 43.5%; percentage of Annexin V positive and/or PI positive cells; SNU-16; 1/18X (IgM 30.0) [5]: 36.6%; percentage of Annexin V positive and/or PI positive cells; SU.86.86; 1/2X (IgM 12.1) [5]: 41.3%; percentage of Annexin V positive and/or PI positive cells; SU.86.86; 1/6X (IgM 12.1) [5]: 29.3%; percentage of Annexin V positive and/or PI positive cells; SU.86.86; 1/18X (IgM 12.1) [5]: 23.4%
2 | antibody 55-31 (antibody, mouse IgM, V domains shown, Mouse IgM, kappa from a hybridoma; tested as hybridoma culture supernatant) VH: QVQLQQPGAELVKPGTSVKLSCKASGYNFTSYWINWVKLRPGQGLEWIGDIYPGSGSTNYNEKFKSKATLTVDTSSSTAYMQLSSLASEDSALYYCARSAYRYDWFAYWGQGTLVTVSA VL: DIQMTQSPASLSVSVGETVTITCRASENIYSNLAWYQQKQGKSPQLLVYAATNLADGVPSRFSGSGSGTQYSLKINSLQSEDFGSYYCQHFWGTPYTFGGGTKLEIKR | < 1% | 1% | < 1% | < 1% | – | – | – | < 1% | 1% | 1% | < 1% | 1% | 1% | < 1% | 3% | 1% | < 1% | < 1% | < 1% | 65 MFI | percentage of Annexin V positive and/or PI positive cells; DU145; 1/2X (IgM 19.5) [5]: 31%; percentage of Annexin V positive and/or PI positive cells; DU145; 1/6X (IgM 19.5) [5]: 35.4%; percentage of Annexin V positive and/or PI positive cells; DU145; 1/18X (IgM 19.5) [5]: 23.6%
3 | antibody 6-90 (antibody, mouse IgM, V domains shown, Mouse IgM, kappa from a hybridoma; tested as hybridoma culture supernatant) VH: EVELQQFGIEMVKPGASVKISCKASGYIFTDYHMDWVRQSHGKSLEWIGDIDPKYDRVTYNQKFKGKASLTADKSSSTAYMELRSLTSEDTAVYYCAKTGAYGDYLAYWGQGTLVTVSA VL: DLVMTQTPLSLPVSLGDQASISCRSSQSLVHSDGNTYFYWYLQKPGQSPKLLIYKVSNRFSGVPDRFSAGGSGTYFTLKISRVEAEDLGVYFCSQTTHFPPTFGGGTKLEIKR | < 1% | 1% | < 1% | < 1% | 50.9% | 42.2% | 22.9% | < 1% | 1% | < 1% | < 1% | 1% | 2% | < 1% | 2% | < 1% | < 1% | < 1% | < 1% | 141 MFI | percentage of Annexin V positive and/or PI positive cells; DLD1; 1/2X (IgM 24.3) [5]: 50.6%; percentage of Annexin V positive and/or PI positive cells; DLD1; 1/6X (IgM 24.3) [5]: 42.3%; percentage of Annexin V positive and/or PI positive cells; DLD1; 1/18X (IgM 24.3) [5]: 38.9%; percentage of Annexin V positive and/or PI positive cells; H358; 1/2X (IgM 31.8) [5]: 50.7%; percentage of Annexin V positive and/or PI positive cells; H358; 1/6X (IgM 31.8) [5]: 49%; percentage of Annexin V positive and/or PI positive cells; H358; 1/18X (IgM 31.8) [5]: 46.9%; percentage of Annexin V positive and/or PI positive cells; Panc 02.03B; 1/2X (IgM 19.0) [5]: 46.7%; percentage of Annexin V positive and/or PI positive cells; Panc 02.03B; 1/6X (IgM 19.0) [5]: 28.7%; percentage of Annexin V positive and/or PI positive cells; Panc 02.03B; 1/18X (IgM 19.0) [5]: 24.5%; percentage of Annexin V positive and/or PI positive cells; SNU-16; 1/2X (IgM 30.0) [5]: 40.2%; percentage of Annexin V positive and/or PI positive cells; SNU-16; 1/6X (IgM 30.0) [5]: 37.2%; percentage of Annexin V positive and/or PI positive cells; SNU-16; 1/18X (IgM 30.0) [5]: 34.8%

— patent US20130177579A1 (BIOALLIANCE C V, published 2013)
